Km data for 1 substance are collected here from patent US8709811B2, “Materials and methods for synthesis of a flavor and aroma volatile in plants” (University of Florida Research Foundation, Inc., priority 2003, dated 2014).

Test systems include O=CCc1ccccc1; O=C/C=C/c1ccccc1; O=Cc1ccccc1.
Common to all, as to test: Alcohol dehydrogenase activity of E. coli expressed His-tagged LePEDH on phenylacetaldehyde and related substrates (Km)
Common to all, as to format: biochemical, tomato
Holding throughout (settings): other: substrate specificity of LePEDH, His tag, E. coli BL21-AI

LePEDH (tomato 2-phenylethanol dehydrogenase, full-length cLET2M9) (Solanum lycopersicum), sequence (chain, as listed by the source): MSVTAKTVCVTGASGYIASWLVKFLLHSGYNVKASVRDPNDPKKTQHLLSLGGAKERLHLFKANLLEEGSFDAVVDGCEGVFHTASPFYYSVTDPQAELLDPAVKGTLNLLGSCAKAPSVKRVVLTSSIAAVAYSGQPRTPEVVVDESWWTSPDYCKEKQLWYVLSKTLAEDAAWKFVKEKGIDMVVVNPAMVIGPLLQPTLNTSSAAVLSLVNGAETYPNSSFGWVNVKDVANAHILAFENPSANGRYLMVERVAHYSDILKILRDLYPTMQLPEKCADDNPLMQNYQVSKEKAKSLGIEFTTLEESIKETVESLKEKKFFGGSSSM
Description for O=C/C=C/c1ccccc1: (§1) The 2-phenylethanol dehydrogenase coding region of the full-length cLET2M9 was cloned in vector pDEST17 with a His tag and transformed into E. coli BL21-AI cells for inducible expression. Alcohol dehydrogenase activities on phenylacetaldehyde and several related substrates were determined.
Description for O=CCc1ccccc1: as §1
Description for O=Cc1ccccc1: as §1

Broadly, the Km is the substrate concentration at which the rate is half of its maximum. For the substance “LePEDH (tomato 2-phenylethanol dehydrogenase, full-length cLET2M9) (Solanum lycopersicum)”, the Km was 42.3 µM with O=CCc1ccccc1, 428.9 µM in the data set with O=C/C=C/c1ccccc1 and 240.1 µM with O=Cc1ccccc1.
